According to patent US20190201496A1 (BRIGHAM AND WOMEN S HOSPITAL, published 2019):

Molecular target: neonatal Fc receptor (FcRn) (UniProt P55899 24-297, limits assumed)
Experiment: comparison of observed KD values; the assay for FcRn is not described here

Sequence of neonatal Fc receptor (FcRn) (P55899 24-297 limits assumed, form in doubt, chain 1 of 2): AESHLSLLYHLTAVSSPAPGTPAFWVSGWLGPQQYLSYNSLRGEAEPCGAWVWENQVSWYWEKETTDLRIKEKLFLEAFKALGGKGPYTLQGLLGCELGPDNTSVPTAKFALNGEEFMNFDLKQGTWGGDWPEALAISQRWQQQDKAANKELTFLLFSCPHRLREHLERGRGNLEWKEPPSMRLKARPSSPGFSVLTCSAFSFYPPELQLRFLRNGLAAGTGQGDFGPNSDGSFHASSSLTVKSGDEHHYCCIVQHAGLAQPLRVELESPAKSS
Sequence of neonatal Fc receptor (FcRn) (chain, as listed by the source limits assumed, form in doubt, chain 2 of 2): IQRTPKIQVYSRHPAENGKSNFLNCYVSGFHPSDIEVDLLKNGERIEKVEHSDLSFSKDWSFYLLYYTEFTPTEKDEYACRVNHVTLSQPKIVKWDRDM

B1: human alpha-fetoprotein (AFP) (ligand)
chain: RTLHRNEYGIASILDSYQCTAEISLADLATIFFAQFVQEATYKEVSKMVKDALTAIEKPTGDEQSSGCLENQLPAFLEELCHEKEILEKYGHSDCCSQSEEGRHNCFLAHKKPTPASIPLFQVPEPVTSCEAYEEDRETFMNKFIYEIARRHPFLYAPTILLWAARYDKIIPSCCKAENAVECFQTKAATVTKELRESSLLNQHACAVMKNFGTRTFQAITVTKLSQKFTKVNFTEIQKLVLDVAHVHEHCCRGDVLDCLQDGEKIMSYICSQQDTLSNKITECCKLTTLERGQCIIHAENDEKPEGLSPNLNRFLGDRDFNQFSSGEKNIFLASFVHEYSRRHPQLAVSVILRVAKGYQELLEKCFQTENPLECQDKGEEELQKYIQESQALAKRSCGLFQKLGEYYLQNAFLVAYTKKAPQLTSSELMAITRKMAATAATCCQLSEDKLLACGEGAADIIIGHLCIRHEMTPVNPGVGQCCTSSYANRRPCFSSLVVDETYVPPAFSDDKFIFHKDLCQAQGVALQTMKQEFLINLVKQKPQITEEQLEAVIADFSGLLEKCCQGQEQEVCFAEEGQKLISKTRAALGV
notes: also called hAFP; human AFP
- fold higher affinity than AFP to β2M: 100 fold
